Measurements: patent publication US20160340704A1, “METHOD OF MAKING A BENZYLISOQUINOLINE ALKALOID (BIA) METABOLITE, ENZYMES THEREFORE” (VALORBEC SOCIÉTÉ EN COMMANDITE, priority 2014, published 2016)

Tests used:
acetylcholinesterase = details: cited from earlier work
scoulerine [1] = test: CYP719 substrate affinity test on scoulerine in GC1333 (integrated PsCPR): Ring A / Ring B closure; format: cell-based, Saccharomyces cerevisiae; details: single CYP719 with PsCPR, 16 hours
Protocol: To broadly identify CYP719 activities on BIAs, a substrate affinity test was performed with the protoberberine BIA scoulerine. CYP719s have been described to form methylenedioxy bridges on BIAs from an alcohol group and a methyl group on adjacent carbons. Two different rings can be made on scoulerine, which can be called “Ring A” and “Ring B”, with the BIA products being called “nandinine” and “cheilanthifoline”, respectively (see FIG. 19). CYP719-catalyzed formation of both Ring A and Ring B of scoulerine (“Ring A-closing activity” and “Ring B-closing activity”) has been identified and published. Certain CYP719 enzymes included in the affinity tests have published ring A and Ring B activities.
(§1) Plasmids harboring CYP719s were transformed into either GC1333 containing an integrated PsCPR (FIG. 10A) or GC1316 containing an integrated PsCPR and an integrated PsCFS (FIG. 10B). Strain GC1333, harboring PsCPR integrated into the chromosome, was transformed with pBOT plasmids, with GFP removed, harboring individual CYP719s (CYP719 EX41-105). (See Tables 7-8 below presenting the nature and activity of these CYP719s).
The resulting CYP719-harboring strains (strains SF41-105) were supplemented with scoulerine. After 16 hours, BIAs were extracted and the molar ratio of scoulerine to downstream BIAs was calculated (FIG. 10A).

(S)-scoulerine = test: TNMT N-methylation test: GCY1101 versus GCY1127 fed (S)-scoulerine; format: cell-based, Saccharomyces cerevisiae
Protocol: When cells of the Block 2-Block 3 double integrant were incubated with (S)-scoulerine, compounds with exact masses of 342.1710 m/z and 340.1548 m/z were detected in addition to expected sanguinarine pathway intermediates. These exact masses, and their CIDs, correspond to N-methylscoulerine and N-methylcheilanthifoline, respectively^36. […] To determine whether TNMT was responsible for the N-methylation of cheilanthifoline and scoulerine, the Block 2 integrant strain harbouring CPR on a plasmid (strain GCY1101) was compared with the Block 2 integrant strain harbouring both CPR and TNMT on a plasmid (strain GCY1127).
Because the applicants lacked standards to quantify the N-methylated products and since the three compounds are similar in structure, they assumed equal ionization efficiency and estimated their relative proportions by peak area: when strain GCY1127 is fed (S)-scoulerine, the expected product N-methylstylopine is 33%, while N-methylscoulerine is 7% and N-methylcheilanthifoline is 60% (FIG. 8B).

[2] = Microsomal cytochrome P450 enzyme assay of PsCFS and PsSPSΔN incubated with (S)-scoulerine; format: biochemical, Papaver somniferum; details: microsomes with PsCPR; 125 μM (S)-scoulerine, 500 μM NADPH
Protocol: The pESC-CPR vector encoding opium poppy cytochrome P450 reductase (PsCPR) fused to a c-Myc tag was used for the heterologous expression of plant proteins in S. cerevisiae^25. The amplicon was inserted into NotI and SpeI restriction sites of pESC-CPR in-frame with a FLAG-tag sequence yielding pESC-CPR/CFS. […]
Analysis of enzyme assays was performed using an Agilent™ 1200 liquid chromatography system equipped with a 6410 triple-quadrupole mass spectrometer (Agilent Technologies; Santa Clara, Calif.). […] Scoulerine, cheilanthifoline, and stylopine were detected in multiple reaction monitoring (MRM) mode using a collision energy of 25 eV and monitored transitions of m/z 328→178, 326→178 and 324→176, respectively.
Constructs for the heterologous expression of PsCFS and PsSPS in S. cerevisiae were assembled in a vector harbouring PsCPR (Table 1 above). […] No conversion of scoulerine was detected in the negative control. […]

scoulerine [3] = test: CYP719s in GC1316 (integrated PsCPR and PsCFS) supplemented with scoulerine; format: cell-based, Saccharomyces cerevisiae
Source text: as §1
Plasmids harboring individual CYP719s were transformed into strain GC1316, which harbored PsCPR and PsCFS integrated into the genome. Strains were supplemented with scoulerine and after 16 hours total BIAs were extracted and the molar ratio was compared (FIG. 10B). The four possible BIAs that could be extracted were scoulerine, the single Ring A product nandinine, the single Ring B product cheilanthifoline, and the double Ring A, Ring B product stylopine.

nandinine = test: CYP719 Ring B closure of nandinine to stylopine in GC1333; format: cell-based, Saccharomyces cerevisiae; details: nandinine generated in vivo from scoulerine, in TE
Protocol: FIG. 11A-B: showing conversion of (S)-cheilanthifoline (FIG. 11A) or (S)-nandinine (FIG. 11B) to (S)-stylopine by purchased CYP719s. Plasmids harboring CYP719s were transformed into GC1333 containing an integrated PsCPR. Strains were incubated with the appropriate BIA overnight, and then total BIAs were extracted and total molar ratios were compared. PsSPSΔN was used as a control.
The 10 CYP719s with 95% activity on Ring A of scoulerine and the 10 CYP719s with activity on Ring B of scoulerine were tested for activity on cheilanthifoline and nandinine, respectively, in order to generate a branched stylopine synthesis pathway. […] CYP719s PsCFS and EX101, capable of converting >98% of scoulerine to cheilanthifoline and nandinine, respectively, were incubated with scoulerine. After 16 h, cells were pelleted and the supernatant fraction was collected. The supernatant was then applied to fresh yeast strains in order to supplement them with either TE containing nandinine or cheilanthifoline as necessary.

Molecule: COc1cc2c(cc1O)[C@@H]1Cc3ccc(OC)c(O)c3C[N@+]1(C)CC2 [N-methylscoulerine]
- described activity (acetylcholinesterase): acetylcholinesterase inhibitor

B1: EX61: CYP719 from Eschscholzia californica, Q50LH3.1, SEQ ID NO: 340 (protein, listed as Eschscholzia californica)
chain: MEEMKILMMNNPWILTATATTLLISIFLFFTRKSSKMVWPAGPKTLPIIGNMHLLGGTALQVVLHNLAKVHGSVMTIWIGSWRPVIVVSDIERAWEVLVNKSSDYSARDMPDITKIISADWKTISTSDSGPHWTNLRKGLQNVALSPHNLAAQFQFQEKDMTKMIQTLQEEARNNNGIVKPLDHMKKATLRLISRLVFGQDFNNDKYVDDMHLAIEELIRVSGYARLAEAFYYAKYLPSHKKAVREVEEAQRRVQNLVSPFLSLNPPTNTYLHFLRSQKYDDEVIIFAIFEAYLLGVDSTSLTTAWALAFLIRESNVQEKLYQELESFASKMDRKILKVEDINKLQYLQAVIKETMRMKPIAPLAIPHKACRDTSLMGKKIDKGTRVMVNIYALHHNKNVFNDPFKFMPERFMKVDSQDANGKAMEQSLLPFSAGMRICAGMELGKLQFSFALANLAYAFKWSCVADGVLPDMSDQLGFVLLMKTPLEARINRRN
- conversion of scoulerine to the Ring A product nandinine (Ring A closure) (scoulerine [1]): 90%

B2: TNMT: Papaver somniferum tetrahydroprotoberberine cis-N-methyltransferase, SEQ ID NO: 58 (protein, listed as Papaver somniferum)
chain: MGSIDEVKKESAGETLGRLLKGEIKDEELKKLIKFQFEKRLQWGYKSSHQEQLSFNLDFIKSLKKMEMSGEIETMNKETYELPSEFLEAVFGKTVKQSMCYFTHESATIDEAEEAAHELYCERAQIKDGQTVLDIGCGQGGLVLYIAQKYKNCHVTGLTNSKAQVNYLLKQAEKLGLTNVDAILADVTQYESDKTYDRLLMIEAIEHMKNLQLFMKKLSTWMTKESLLFVDHVCHKTFAHFFEAVDEDDWYSGFIFPPGCATILAANSLLYFQDDVSVVDHWVVNGMHMARSVDIWRKALDKNMEAAKEILLPGLGGSHETVNGVVTHIRTFCMGGYEQFSMNNGDEWMVAQLLFKKK
- substrate acceptance for N-methylation ((S)-scoulerine): accepts both scoulerine and cheilanthifoline as substrates

B3: EX84: Papaver somniferum cheilanthifoline synthase, ADB89213.1, SEQ ID NO: 363 (protein, listed as Papaver somniferum)
chain: MEVTFWLITCGVVVAFALAKLLFGKKSSMSTMEWPSGPKTLPIIGNLHQLGGEAFHVCLANLAKVYGGVFTIWVGSWRPFIVISDVDKAWEVLVNKSSDYSARDMPDITKIISANWKNISHGDSGPFWHNLRKGLQGVALTPFNVASQYHLQERDMQNLIKSMKKKASQKNGILKPLDYVKEETVRLLSRLIFSQEFVDEDFVVGMHQALDELVSISGYASLADAFKFCENLPSHKKTIRAVHAIKIRFDNLIRPHIVSNPPTNTYLHFLLSQDFSEDVIISAILEVYDLGVDSTASTTVWALTFLVREQKIQEKLYREINNVTGGKRPVKVEDLNKLPYLQAVMKETMRMKPIAPMAIPHKASKDTSLMGKKINKGTVVMVNLYAIHHNPAVFPEPYKFMPERFLKDANSDGSLGDIKKMESSLLAFSAGMRICAGMELGKLQLAFGLASLVNEFKWDCVAEGKLPDLSEEHCFILLMKNPLEAKITPRIH
- conversion of (S)-scoulerine by microsomal proteins (LC-MS products) [2]: converted to cheilanthifoline
- conversion of scoulerine to cheilanthifoline (scoulerine [3]; PsCFS alone in GC1316): 100%
- activity on nandinine (scoulerine [3]; inferred from residual nandinine in GC1316 strains): little to no activity on nandinine
- conversion of nandinine to stylopine (nandinine): 12%

B4: EX46: CYP719 from Corydalis cheilanthifolia, SEQ ID NO: 325 (protein, listed as Corydalis cheilanthifolia)
chain: MVNAVAEILTEKPWLLPATLLAVIAIAKFFLGKSSTMKWPIGPKTLPIIGNMHQLGGTDLQVVLANLAKTYGTIMTIWVGSWRPMIVLSDIEKAWEVLVNKSSDYSGRAMPEITEIISAKGKTISTSDSGPHWSNLRKGLQNVALSPHNIAAQSRFQESDITKMIKTLKQEAASNNGIVQPLDHLKKSTVRLISRLIFGQDFDDDEYVEAMHLAVEELIRVSGYARLAEAFYYAKYLPSHKRAVSEVWEANRRVKRIVKPRLSANPPPNCYLHFLSSQDYSEEMIIFAIFEAYLLGVDSTSSTTAWALGFLIREPKVQERLYQELKNCAGENGLIKVEDINKLPYLQAVLKETMRMKPIAPLAIPHKAVRETSLAGNKVEPGTRVMVNLYAIHHNPKVWIDPHKFKPERFLQGEENGGGNLKLMEQSLLPFSAGMRTCAGMELGKLQFGFSLANLVNAFQWDCAKKGMFPDMSDLLGFVLLMKTPLQAKIVPRGSPSINGY
- conversion of scoulerine to the Ring A product nandinine (Ring A closure) (scoulerine [1]): 66%
